Source: article PMC6895700, “SIX3 and SIX6 interact with GEMININ via C-terminal regions” (Biochemistry and Biophysics Reports, 2019)
“And” between values parts separate entries of the source, which are not always exact repeats. Identical values can stand only once.

B1: GEMININ (human, full-length, MBP tag removed) (natural protein, UniProt O75496 1-209, looked up)
chain: MNPSMKQKQEEIKENIKNSSVPRRTLKMIQPSASGSLVGRENELSAGLSKRKHRNDHLTSTTSSPGVIVPESSENKNLGGVTQESFDLMIKENPSSQYWKEVAEKRRKALYEALKENEKLHKEIEQKDNEIARLKKENKELAEVAEHVQYMAELIERLNGEPLDNFESLDNQEFDSEEETVEDSLVEDSEIGTCAEGTVSSSTDAKPCI
notes: The His6 tag lies with MBP at the N-terminus, before the TEV site of pETMBP_1, so it was probably removed with MBP; also called GMNN; source: E. coli BL21Star (DE3), purified (Ni-NTA HisTrap HP, TEV digestion, size exclusion); not shown: MBP, N-terminal, cleaved
B2: MBP-fused SIX domain of SIX3 (domain or fragment)
chain: MFQLPTLNFSPEQVASVCETLEETGDIERLGRFLWSLPVAPGACEAINKHESILRARAVVAFHTGNFRDLYHILENHKFTKESHGKLQAMWLEAHYQEAEKLRGRPLGPVDKYRVRKKFPLPRTIWD
modifications: Assayed as an N-terminal His6-MBP fusion (left out). Start follows the printed deletion of aa 1-78; end is derived from the stop-codon primer (T-I-W-D-stop), just before the homeobox at 206.

Legend:
Settings in all cases: both partners purified
[1] = molecular target: T1, MBP-fused full-length SIX3 (SIX3 without aa 1-78) (human, UniProt O95343 79-332); experiment: SPR; Biacore T200, GEMININ (1370 RU) immobilised by amine coupling on a CM5 chip; MBP fusions or MBP alone as analyte; 25 °C; PBS-TCEP (3.5 mM TCEP) with 350 mM NaCl (results: 437 mM NaCl); 30 μl/min; apparent KD from a steady-state fit
T1 construct: SIX3, human, without the N-terminal homopolymeric region (aa 1-78, GenBank AF049339); A TEV site lies between the tags and SIX3; also called MBPSIX3; source: E. coli BL21Star (DE3), purified (Ni-NTA HisTrap HP, size exclusion); not shown: MBP, N-terminal, kept
T1 sequence (looked up): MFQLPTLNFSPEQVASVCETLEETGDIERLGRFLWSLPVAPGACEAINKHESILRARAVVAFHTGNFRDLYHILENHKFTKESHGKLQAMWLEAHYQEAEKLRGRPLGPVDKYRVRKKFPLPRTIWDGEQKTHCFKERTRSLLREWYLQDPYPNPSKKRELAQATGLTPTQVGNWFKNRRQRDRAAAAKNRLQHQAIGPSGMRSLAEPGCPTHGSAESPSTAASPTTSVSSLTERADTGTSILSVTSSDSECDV

[2] = molecular target: T1, MBP-fused full-length SIX3 (SIX3 …); experiment: ITC; Nano ITC LV, 25 °C, PBS-TCEP with 300 mM NaCl (results: 437 mM NaCl); 200 μM GEMININ (or its coiled-coil region) in the syringe, 10 μM MBPSIX3 (or MBP alone) in the cell; independent binding sites model; GEMININ-to-MBP control subtracted
[3] = molecular target: B1; experiment: SPR; Biacore T200, GEMININ (1370 RU) immobilised by amine coupling on a CM5 chip; MBP fusions or MBP alone as analyte; 25 °C; PBS-TCEP (3.5 mM TCEP) with 350 mM NaCl (results: 437 mM NaCl); 30 μl/min; apparent KD from a steady-state fit

Row | Binder | Kd [1] [µM] | Kd [2] | dH [2] [kcal/mol] | stoichiometry N [2] | Kd [3]
1 | B1 | 3.19 | 3.4 µM and 3.41 µM | -75.8 | 0.55 | –
2 | B2 | – | – | – | – | 19.5 µM and 19.6 µM
